Results from patent publication CN106084046A (UNIV SUN YAT SEN, dated 2016).

B1: 抗CD3单域抗体 A30249 (VHH)
VHH: QVKLEESGGGLVQAGGSLRVSCTASGRTFDTMGWFRQAPGKEREFVAAVRWSSGNTLYGNTVKGRFTISRDTATNTVYLQMSSLKHEDTAVYYCAARVGGRGAADHWGQGTQVTVSS
notes: Llama sdAb from a phage display library; Tested as sdAb-SASA protein in crude expression medium / culture supernatant, not purified; also called sdAb; sdAb-SASA; not shown: SASA fusion partner from the pFASEBA vector (sdAb-SASA protein in expression medium)

Key:
[1] = target: CD3 on Jurkat靶标细胞 (human) (UniProt P07766); experiment: flow cytometry, culture supernatant of the negative control sdAb on Jurkat cells (TG1 background supernatant: 132.03)
CD3-His蛋白(MP-5) = target: T1, CD3-His蛋白(MP-5) (human, UniProt P07766 23-126); experiment: BLI (Octet RED96) off-rate screen, sdAb-SASA from expression medium captured on BSA-coated biosensor, 100 nM CD3 in solution, 30°C, 1:1 Langmuir model
T1 construct: Immunogen and panning antigen; also called CD3蛋白; not shown: His tag
T1 sequence (P07766 23-126): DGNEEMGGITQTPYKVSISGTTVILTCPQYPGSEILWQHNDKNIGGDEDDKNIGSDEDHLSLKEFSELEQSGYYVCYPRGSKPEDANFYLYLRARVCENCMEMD

[2] = target: CD3 on Jurkat靶标细胞 (human) (UniProt P07766); experiment: flow cytometry, culture supernatant on Jurkat cells

Row | Molecule | MFI [1] | koff (CD3-His蛋白(MP-5)) | MFI [2]
1 | NC-sdAb(相同形式的非相关性sdAb) (VHH) | 115 MFI |  | 
2 | B1 |  | 4.92e-05 s⁻¹ | 217 MFI
